This test has as its system OVMZ6 cells. In words: Colony formation assay, OVMZ6 cells. The note with it: even at the highest concentration. Format: cell-based, human. The procedure:
MMAE-conjugated 10D7 and IgG1K were prepared as described (Nielsen C F, et al., (2017) Oncotarget. 8(27):44605-24.53) and drug-antibody ratio (DAR) determined by reverse phase LC/MS as reported (Basa L. et al., (2013) Methods Mol Biol. 1045:285-93.) on an ABSCIEX Triple TOF spectrometer (AB SCIEX Framingham, Mass.) coupled to a Shimadzu Nexera 1D UHPLC system (Shimadzu, Rydalmere, Australia). ADC peak identification was performed as reported with DAR determined by peak area integration (Hamblett K J, et al., (2004) Clin Cancer Res. 10(20):7063-70; Yao X, et al., (2015) Breast Cancer Res Treat. 153(1):123-33). Colony-formation assays were performed as described (Crowley L C, et al., (2016) Cold Spring Harb Protoc. 2016(8):pdb.prot087171) on cells (100,000/ml) treated with the indicated concentrations of 10D7, 10D7-MMAE, IgG or IgG-MMAE overnight before being lifted and replated in 24-well plates (200 cells/well). After a defined growth period media was removed and cells gently PBS washed before staining with 0.1% crystal violet (Sigma-Aldrich) in 2% ethanol. After 20 minutes and stained cells were scanned (700 nm) on a LiCOR System (Odyssey V3.0 software) with images analyzed using the ColonyArea ImageJ plugin to quantify colony area and intensity (Guzmán C, et al., (2014) PLoS One. 9(3):e92444.). […]

B1: 10D7-MMAE (conjugate)
VH: EVQLQQFGAELVKPGASVKISCKASGYSFSDFNIEWLKQSHGKSLEWIGDINPNYDSTNYNQKFKGRATLTVDKSSSTAYMEVRSLTSEDTAVYYCARLGYGYAMDYWGQGTSVTVSS
VL: NIVMTQSPQSMSMSVGERVTLSCKASENVGAYVSWFQQKPDQSPKLLILAASNRYTGVPARFIGSGSATDFTLTISSVQAEDLADYHCGQSYTYPYTFGGGTKLEIKRADAAPTVS
For the molecule B1, the colony formation entry was “unaffected”.
